The text below walks through data of patent US9284369B2, “Inhibition of angiogenesis” (Genentech, Inc., priority 2007, dated 2016).

Assay [1] has as its system PKR2/EG-VEGFR2 expression. Put plainly: Regulation of PKR2/EG-VEGFR2 expression in human bone marrow cells and neutrophils. The assay is classed as cell-based. An excerpt: Taqman reagents for human PKR1/EG-VEGFR1 and PKR2/EG-VEGFR2 were obtained from Applied Biosystems.
Recombinant human MCP-1, MIP-1α, MIP-1β, MIP-2, bFGF, VEGF, GM-CSF, G-CSF, SDF-1α, M-CSF, Erythropoietin (EPO) and TNFα were purchased from R&D Systems (Minneapolis, Minn.). Recombinant human IL-8, IFNγ, Bv8 (Prokineticin-2), IL-4, IL-10, IL-13, TGF-β were from PeproTech Inc. (Rocky Hill, N.J.). SCF (Stem Cell factor) was from Invitrogen Biosource (Carlsbad, Calif.). In some cases, G-CSF from Amgen (Neupogen/Filgrastim) was used. All cytokines were used at 10 ng/ml. Freshly purified cells were washed and re-suspended in HBSS media containing 0.2% BSA (low endotoxin, Serologicals Corp. Norcross, Ga.). Two million cells were incubated in 24-well plates with various cytokines and chemokines for 4 hr at 37° C. in a 5% CO2 incubator. Cells were then transferred into eppendorf tubes, centrifuged and lysed with RNA lysis buffer (Qiagen, Valencia, Calif.). Bv8 expression was assessed by Taqman with RPL19 (Ribosomal Protein L19) as the internal control gene.

Assay [2] concerns Bv8 expression. The conditions noted are these: previously reported; cited from earlier work.
Assay [3] concerns Bv8 expression. Put plainly: Bv8 expression in human leukemia cell lines. It counts as cell-based. As for the experimental part:
U937, HL-60, THP-1, Hel 92.1.7, KG-1, K562, Jurkat cells were obtained from the ATCC® (Manassas, Va.). Most cells were grown in 10% FBS-containing RPMI. KG-1 cells were grown in 20% FBS-containing Iscove's modified Dulbecco's medium. For THP-1 cells, 10% FBS-containing RPMI was used with Sodium Pyruvate, HEPES and β-mercaptoethanol. For regulation studies, 1 million cells with viability higher than 95% were used. Regulation studies were performed under both normoxia and hypoxia conditions for 4 hr in 1 ml HBSS media containing 0.2% BSA.

The next assay has as its system human neutrophils. Put plainly: Chemotaxis of peripheral blood neutrophils. The assay is classed as cell-based. As for the experimental part: 10^6 cells were washed with HBSS containing 0.2% BSA before putting into transwell insert with 5 μm pore size (Corning Incorporated, Lowell, Mass.). In the lower chamber, media alone or media with various cytokines at various concentrations (maximum at 200 ng/ml) was added. After 3 hr at 37° C., cells in the lower chamber were transferred, mixed with 9 ml ZPAK solution and counted on Z2 Coulter Particle Count and Size Analyzer (Beckman Coulter, Fullerton, Calif.).

The next assay relates to CD11b+Gr1+ cells. Nature of the assay: G-CSF-induced mobilization of CD11b+Gr1+ cells. The assay is classed as in vivo, mouse. The conditions noted are these: sub-maximal dose 2 μg, within six hours. As for the experimental part: To determine the role of Bv8 in G-CSF-induced mobilization of CD11b+Gr1+ cells, Balb/c nude mice received two doses of anti-Bv8 antibodies (5+5 mg/kg), 12 hours apart, followed by mouse G-CSF (R&D Systems; 2 μg/mouse) fours hours after the second dose of Mab. As a positive control, we used a rat anti-mouse G-CSF Mab (Mab414, R&D Systems; 10 μg/mouse) given at the same interval as anti-Bv8, followed by mouse G-CSF. After six hours, mice were bled and the frequency of CD11b+Gr1+ cells was determined as described. To determine the role of G-CSF in regulating Bv8 expression in the absence of tumor, Balb/c nude mice were given daily i.p. injections of control rat IgG (Genentech) or rat anti-G-CSF Mab (Mab414, R&D Systems, 10 μg/mouse) for eight consecutive days. Animals were euthanized and total proteins were extracted from BMMNCs. Bv8 levels were measured by ELISA, as described. To assess the significance of G-CSF in regulating Bv8 expression in tumors, Balb/c nude mice were pretreated with 10 μg of rat anti-G-CSF Mab or rat IgG as above described, followed after 12 hours by implantation with HM7 cells (5×10^6 per mouse). Controls were implanted with empty Matrigel™. Animals then received daily administration of antibodies for two days. Forty-eight hours after Matrigel™ or tumor implantation, mice were euthanized and Bv8 levels in BMMNCs were measured as described above.

Assay [4] deals with Bv8 expression. Nature of the assay: Regulation of Bv8 gene expression in cultured mouse BMMNCs (Taqman). The assay is classed as cell-based. The conditions noted are these: for stimulation of Bv8 expression in CD11b+Gr1+ cells: 20 pg/ml G-CSF, 4 hrs. As for the experimental part:
RNA from tissues or cells was prepared using the RNeasy Mini Kit® (Qiagen). 50 ng total RNA per reaction was used for the real time PCR (Taqman™) analysis. For mouse/human Bv8 and EG-VEGF/Bv8 receptor 1 (PKR-1/EG-VEGFR1, R-1), testis RNA (BD Biosciences) served as control. For mouse/human EG-VEGF/Bv8 receptor 2 (PKR-2/EG-VEGFR2, R2), hypothalamus or whole brain (BD Biosciences) served as the control tissues. Reactions were run on 9600 Emulation mode of 7500 Real […] time PCR system (Applied Biosystems) and the absolute quantification with standard curve was used with Sequence Detection System (SDS) software. The expression level of each gene was further quantified against the house-keeping gene RPL19 in the same sample. To confirm the expression of VEGFR-1, VEGFR-2, EG-VEGF/Bv8 R1 and EG-VEGF/Bv8 R2 in the tumor-associated endothelial cells, standard RT-PCR was conducted using the Titan One Tube™ RT-PCR system (Roche) and the end products were checked on 2% agarose gel (Invitrogen) for the correct size. The sequence of Taqman™ primers are as follows: […]
Recombinant mouse MCP-1, MIP-1α, MIP-1β, MIP-2, bFGF, VEGF, GM-CSF, G-CSF, SDF-1 and TNFα were purchased from R&D Systems (Minneapolis, Minn.). Recombinant mouse KC, IFNγ, Bv8 (Prokineticin-2), IL-4, IL-10, IL-13, TGF-β were from PeproTech Inc. (Rocky Hill, N.J.). […] Conditioned media at 1:3 dilution were used (final FBS concentration was 0.17%). Data were normalized against total cell number. BM cells were flushed from mouse leg bones with DMEM containing 10% FBS. Cells were centrifuged at 1200 rpm for 5 min and resuspended in HBSS media containing 0.2% BSA (low endotoxin, Serologicals Corp. Norcross, Ga.). Two million cells were incubated in 24-well plates with various cytokines for 4 hr at 37° C. in a 5% CO2 incubator. Cells were then transferred in eppendorf tubes, centrifuged and lysed by RNA lysis buffer (Qiagen, Valencia, Calif.). Bv8 expression was assessed by Taqman™ with RPL19 (Ribosomal Protein L19) as the internal control gene. In some cases, CD11b+Gr1+ or CD11b−Gr1− BM cells were obtained using FACS sorting.

Bounds are passed on as bounds.

B1: G-CSF: recombinant granulocyte-CSF: mouse or human (R&D Systems) or human Neupogen (Amgen) (protein, chains of the INN, looked up)
chain: MTPLGPASSLPQSFLLKCLEQVRKIQGDGAALQEKLCATYKLCHPEELVLLGHSLGIPWAPLSSCPSQALQLAGCLSQLHSGLFLYQGLLQALEGISPELGPTLDTLQLDVADFATTIWQQMEELGMAPALQPTQGAMPAFASAFQRRAGGVLVASHLQSFLEVSYRVLRHLAQP
In the case of B1, the “regulation of PKR2/EG-VEGFR2 in human bone marrow” value in assay [1] is listed as “regulate PKR2/EG-VEGFR2 to a significant level”. Besides, the “up-regulation of Bv8 expression in mouse bone marrow cells and peripheral neutrophils” value in the assay with Bv8 expression [2] is on record as > 30 fold. In addition, the “Bv8 expression in HL-60” value with Bv8 expression [3] is recorded as “Neither G-CSF nor GM-CSF affected Bv8 expression”. Also, the “increase in Bv8 expression in several leukemia cell lines” value in the assay with Bv8 expression [3] (10 ng/ml, 4 hr) is 2-3 fold. Also, the “concentration required to stimulate neutrophil migration” value in the assay on human neutrophils was determined as 20 nM. For the same molecule, in the assay with CD11b+Gr1+ cells, the “mobilization of CD11b+Gr1+ to the peripheral blood” value is given as “significant mobilization”. Besides, the entries for the “stimulation of Bv8 expression in CD11b+Gr1+ cells” value in the assay on Bv8 expression [4] (hypoxic conditions) and with Bv8 expression [4] (normoxic conditions) were ~10 fold and ~5 fold, respectively. For the same molecule, in the assay with Bv8 expression [4] (10 ng/ml, 4 hr), the “Bv8 up-regulation in purified CD11b+Gr1+ cells” value is listed as “over 100 fold”. Further, the “up-regulation of Bv8 in unsorted BMMNCs” value with Bv8 expression [4] (10 ng/ml, 4 hr) is reported as > 27 fold.
